T1: human CD84 on cells (human, UniProt Q9UIB8 22-345)
T1 construct: the cells were 300.19 cells stably transfected with CD84 full-length DNA, or Raji, Ramos, MOLM-13 cells, lymphocytes and monocytes with their own CD84; also called LY9B; SLAMF5
T1 sequence: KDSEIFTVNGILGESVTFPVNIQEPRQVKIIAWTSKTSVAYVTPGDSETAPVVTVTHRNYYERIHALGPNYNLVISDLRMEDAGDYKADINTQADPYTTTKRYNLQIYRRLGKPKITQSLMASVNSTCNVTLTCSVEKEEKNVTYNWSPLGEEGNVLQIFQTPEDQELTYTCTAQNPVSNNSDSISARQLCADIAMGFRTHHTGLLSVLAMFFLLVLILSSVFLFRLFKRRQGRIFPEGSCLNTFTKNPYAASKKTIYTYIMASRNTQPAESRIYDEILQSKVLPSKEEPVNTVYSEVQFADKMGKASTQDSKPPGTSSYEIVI


target: T1, human CD84 on cells; test: flow cytometry, hybridoma supernatant, 300.19 cells transfected with CD84

| Binder | 300.19-CD84 binding [%] |
| --- | --- |
| 152-1D5 (antibody, IgG1, V domains shown, tested as hybridoma supernatant; also called anti-CD84 mouse monoclonal antibody 152-1D5) VH: QVQLQQPGAEVVQPGTSVKLSCKASGYNFTNYWINWVKLRPGQGLEWIGDIYPVSGTTNYNEKFKRKATLTVDTSSSTGNMQLSSLASEDSALYYCASGTGRFAYWGQGTLVTVSA VL: DIVLTQSPASLAVSLGQRATISCRASQSVSTSSYSYMHWYQQKPGQPPKLLIKFASNLESGVPARFSGSGSGTDFTLNIHPVEEEDTATYYCQHSWEIPYTFGGGTKLEIK | 92.5 |
| GYCD84.1-97 (antibody, IgG2a, V domains shown, tested as hybridoma supernatant) VH: QVQLQQPGAELVKPGTSVKLSCKASGYNFTSYWINWVKLRPGQGLEWIGDIYLGSGSTNYNEKFKSKATLTVDTSSSSAYMQLSSLVSEDSALYYCATSGGYLGYWGQGTTLTVSS VL: DIVLTQSPASLAVSLGQRATISCRASQSVSTSSYSYMHWYQQKPGQPPKLLIKFASNLESGVPARFSGSGSGTDFTLNIHPVEEEDTATYYCQHSWEIPYTFGGGTKLEIK | 97.7 |
| GYCD84.5.171 (antibody, IgG1, V domains shown, tested as hybridoma supernatant) VH: EVQLVESGGGLVQPKGSLKLACAASGFTFNIYAMNWVRQAPGKGLEWVARIRSKSNNYARFYADSVKDRFTISRDDSQSMLYLQMNNLKTEDTAMYYCVRPLRSYFSMDYWGQGTSVTVSS VL: SIVMTQSPKSMSMSVGERVTLSCKASENVDTYVSWYQQKPEQSPKLLIYGASNRYTGVPDRFTGSGSATDFTLTISSVKAEDLADYHCGQTYSYPWTFGGGTKLEIK | 93.2 |

— patent US20250064853A1 (GYALA THERAPEUTICS SOCIEDAD LIMITADA, published 2025)
